The record followed here is the nanobody polyreactivity screen of Harvey et al. (2022).

The data set can be described thus: yeast display, Sf9 membrane polyspecificity reagent, FACS + sequencing; frameworks hold sequencing errors. The essentials:
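Synthetic nanobody libraries on Saccharomyces cerevisiae BJ5465 were galactose-induced for 36–48 hours, stained 1 hour at 4 °C with 10% biotinylated, detergent-solubilized Sf9 membrane reagent and enriched on streptavidin microbeads. FACS then separated cells into low and high (top ~1%) gates by anti-HA (expression) and streptavidin (reagent binding) fluorescence. Genes were colony-PCR amplified, MiSeq 2 × 250 sequenced and CDR-length filtered. A clone's polyreactivity label is that of its gate of origin.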
In the case of “QVQLVESGGGLVQAGGSLRLSCAASGFTFPQYAMGWYIQAPGKERELVASITRRGGSTFYADSVKGRFTISRDNAKNTVYLQMNSLKPEDTAVYYSAAGDYSRSVSRYWYTDYDYWGQGTQVTVSS”, the “polyreactivity (PSR sort gate)” value is “high polyreactivity”.
Then “QVQLVESGGGLVQAGGSLRLSCAASGRISIKNAMGWYRQAPGKERELVAAIRWSADSTYYADSVKGRFTISRDNAKNTVYLQMNSLIPEDTAVYYCAATGRLRYYWGQGTQVTVSS”, with “high polyreactivity”; and “QVQLVESGGGLVQAGGSLSLSCDASGSTFYYNAMGWYRQAPGKERELVAAITFTGGSTYADSVKGRFTISRDNAKNTVYLQMNSLKPEDTAVYYCSATIQGHDYLGTGYDYWGQGTQVTVSS”, with “low polyreactivity”; and “QVQLVESGGGLVQAGGSIRLSCAASGFIFFSNAMGWYRQAPGKERELVAVIDRATSTYYADSVKGRFTISRDNAKNTVYLQMNSLKPEDTAVYYCNADGEEVYDFNYFLSFKGDYWGQGTQVTVSS”, with “low polyreactivity”.
Turning to “QVQLVESGGGLVQAGGSLRLSCAASGSIIYYAMGWYRQAPGKEREFVAAITKSGGSTYYADSVKGRFTFSRDNAKNTVYLQMNSLKPEDTAVYYCAARGTWAGFYYWGQGTQVTLSS”, the “polyreactivity (PSR sort gate)” value is on record as “high polyreactivity”.
Take “QVQLVESGGGLVQAGGRLRLSCADSGRTYGSNAMGWYRQAPGKERELVAAISGGDTTNYADSVKGRFTISRDNAKNTVYLQMNSLKPEDTAVYYCATDLRPAYDYWGEGTQVTVSS”: the “polyreactivity (PSR sort gate)” value is given as “low polyreactivity”.
In the case of “QVQLVESGGGLVQAGGSLRLSCAASGSTFKWYAMGWYRQAPGKERELVAAISSRGGSTYYADSVKGRFTISRDNAKNTVYLQMNSLKPEDTAVYYCNALVRPQWSYNDFDYWGQGTQVTVSS”, the “polyreactivity (PSR sort gate)” value is recorded as “high polyreactivity”.
Then “QVQLVDSGRGLVQAGGSLRLSCAASGSIFDNYAMGSYRQAPGNERELVAAISGRGGSTYYADSVKGRFTISRDNAKNTVYLQMNSLKPEDTAVSYCNALVHQTYYDYDDWGHGTQVTVSS”, with “high polyreactivity”.
For “QVQLVESGGGLVQAGRSLLLSCAASGRIFDGYAKGRYRQAPGKERELVAAINSNDGTTYYADSVKGRFTISRDKAKHTVYVQMNSLKPEDTAVYYCAKVSYNAWSYGPQMDYWGQGTQVTVSS”, the “polyreactivity (PSR sort gate)” value is given as “low polyreactivity”.
As to “QVQLVESGGGLVQAGGSLRLSCAASGRIFQYYAMGWYRQAPGKERELVAAINSSGGRTYYADSVKGRFTISRDNAKNTVYLQMNSLKPEDTAVYYCNAVLSTRGMDYWGQGTQVTVSS”, the “polyreactivity (PSR sort gate)” value is on record as “high polyreactivity”.
Turning to “QVQLVESGGGLVQAGGSLRLSCAASGRIFQRYTMGWYRQAPGKEREFVAAITYSGGSTHYADSVKRRFTISRDNAKYTVYLQMNSLKPEDTAVYSCNARTSVLHDYWGQGTQVTVSS”, the “polyreactivity (PSR sort gate)” value is reported as “low polyreactivity”.
Regarding “QVQHVESGVGLVQAGGSLRLSCAASGSIFVHNAMGWYRQAPGKERELVAGISARAASTYYADSVKGRFTISRDNAKNTVYLQMNSLKPEDTAVYYCAADRIPGYRVYGFYYWGQGTQVTVSS”, the “polyreactivity (PSR sort gate)” value is “low polyreactivity”.
On to “QVQLVESGGGLVQAGGSLRLICAASGGIFNYYAMGWYREAPGKERELVAAISASGGSTYYADSVKGRFTISRDNAKNTVYLQMNSLKPEDTAVYYCAAGLPYGYGYDYWGQGTQVTVSS”, for which the “polyreactivity (PSR sort gate)” value is on record as “low polyreactivity”.
“QVQLVESGRGLVQAGGSLRLSSAASGSTFVNYDMGWYRQATGKERELVAAITSSGDSTYYADSVKGRFTISRDNAKNTVYLQMNSLKPEDTAVYYCNRDDAGIMDYWGQGTQVTVSS”: the “polyreactivity (PSR sort gate)” value is on record as “low polyreactivity”.
Regarding “QVQLVESGGGLVQAGGSLRLSCAASGIIFYRYAMGCYRQAPGKEREFVAAISWSGGSTTYADSVKGRFTISRDNAKNTVYLQMNSLKPEDTAVYYCNADRKYWSLWGPAYDYWGQGTQVTVSS”, the “polyreactivity (PSR sort gate)” value is on record as “high polyreactivity”.
For “QVQLVESGGGLVQAGGSLRLSCAASGRTFYYYAMGWYRQAPGKERELVAGIDFSSGSTYYADSVKGRFTISRDNAKNTVYLQMNSLKPEDTAVYYCAAKWHVRGRGARYRYDYDYWGQGTQVTVSS”, the “polyreactivity (PSR sort gate)” value is on record as “low polyreactivity”.
“QVQLVESGGGLVQAGGSLRLSCAASGFTFTWYVMGWYRQAPGKERELVAAISRSGGSTYYADSVKGRFTISRDNAKNTVYLQMNSLKPEDTAVYYCAAVGTSRYDYWGQGTQGTVSS”: the “polyreactivity (PSR sort gate)” value is “high polyreactivity”.
In the case of “QVQLVESGGGLVQAGGSLRLSCAASGSIFVSYAMGWYSQAPGKERELVAVISYSGVSTYYADSVKGRFTISRDNAKNTVYLQINSLKPEDTAVYYCATRQYGTRHILKYNYWGQGTQVTVSS”, the “polyreactivity (PSR sort gate)” value is “low polyreactivity”.
For the sequence “QVHLVESGGGLVQAGGSLRLSCPASGSTIRNYAMGLYRQAPGKERELVAAITKRGGTTYYADSVKGRFTISRDNAKNTVYLQMNSLKPEDTAVYYCAIGYNSSPFDYWGQGTQVTVSS”, the “polyreactivity (PSR sort gate)” value is “high polyreactivity”.
Under “QVQLVESGGGLVQAGGSLRLSCAASGGIIRVYVMGWSRQAPGKERELVAAISRRGGSTYYADSVKGRFTISRDNAKNTVYLQMNSLKPEDTAVYYCAAAVRPRANTTYQRPRYYYWGQGTQVTVSS” stands “high polyreactivity”; under “QIQLEESGGGLVQAGGSLRLSCAASGSIFDYNTMGWYSQAPGKERELVAAISSSGGSTYYADSVKGRFTISRDNAKNSVYLQMNSLKPEDTAVYYCAAVNGYQYPPYYFNGYDYWGQGTQVTVSS”, “low polyreactivity”; under “QVQLVESGGGLVQAGGSLRLSCAASGRTFTFNVMGWYRQAPGKERELVAVITGGDDTYYADSVKGRFTISRDNAKNTVYFQMNSLKPVDTAVYYCNAAAGATTLVRPYVEFDYWGQGTQVNVSS”, “low polyreactivity”.
Then “QVQLVESGGGLVQAGGSLRLSCAASGRTFAYNAMGWYRQAPGKERELVASITSGGSTNYADSVKGRFTISRDNAKNTVYLQMNSLKPEDTAVFYCNKDGKYHRVLYDYWGQGTQVTVSS”, with “low polyreactivity”.
As to “QVQLVESGGGLVPARGSLRLSSAASGIIFSRYAMGWYRQAPGKERELVAAITRSGGDTYYADSVKGRFTISRDNAKTTFYLQMKSLTPEDSADYYCAAERTWYPWVATGYYWGQGTQVTVSS”, the “polyreactivity (PSR sort gate)” value is recorded as “low polyreactivity”.
Turning to “QVQLVESGGGLVQAGGSLRLICAASGSIFRYYAMGWYRQAPGKERELVADINGSGGSTYYADSVKGRFTISRDNAKNTVYLQMNSLKPEDTAVYYCATAYGWRRKYYGYDYCGQGTQVTVSS”, the “polyreactivity (PSR sort gate)” value is recorded as “high polyreactivity”.
In the case of “QVQLVESGGGLVQAAGSLRLSCAASGFTFLRYAMGWYRQAPGKERELVAGITKSGGTTYYADSVKGRFTISRDNAKNTVYLQMNSLKPEDTAVYYCNALYSRRRRPYTDDYDYWGQGTQVTVSS”, the “polyreactivity (PSR sort gate)” value is on record as “high polyreactivity”.
Turning to “QVQLVESGGGLVQAGGSLRLSCAASGRIYSRYAMGWYRQAPGKERELVAAISASGGSTYYADSVKGRFTISRDNAKNTVYLQMNSLKPEDTAVYYCNAYQTSTPLFPGYGYWGQGTQVTVSS”, the “polyreactivity (PSR sort gate)” value was “low polyreactivity”.
On to “QVQLVESGGGLVQAGGSLRLSCAPSGRIFKYNAMGWYRQAPGKERELVAAITSSGASTYYADSVKGRFTISRDIAKHTVYLQMNSLKPVVTAVYYCAARARRKYDYWGQGTQVTLSS”, for which the “polyreactivity (PSR sort gate)” value is “high polyreactivity”.
In the case of “QVQLVESGGGLVQAGGSLRLSCAAYGSNFTSNAMGWYRQAPGKERELVAVITIGGSTNYADSVKGRFTISRDNAKNTVYLQMNSLKPEDTAVYYCAADDDYSRILQGDQSDDYWGQGSQVTVSS”, the “polyreactivity (PSR sort gate)” value is on record as “low polyreactivity”.
Take “QVQLVESGGGLVQAGGSLRLSCAASGLIFGRNVMGWYRQAPGKERELVAAISWSGGRTYYADSVKGRFTISRDNEKNTVYLQMNSLKPEDTAVYYCAAGYPYYYWTPYYYWGQGTQVTVSS”: the “polyreactivity (PSR sort gate)” value is given as “high polyreactivity”.
With “QVQLVESGGGLVQAGGSLRLSCAASGLTIFVYAMGWSRQAPGKERELVAAISDSGGSTYYADSVKGRFTISRDNAKNTVYLQMNSLKPEDTAVYYCAADYRGIYSGIWGDYWGQGTQVTVSS”, the “polyreactivity (PSR sort gate)” value is given as “low polyreactivity”.
Consider “QVQLVESGGGLVQAGGSLRLSCAASGFIFVLYAKGWYRQAPGQERELVAAISRTGGSTYYADSVKGRFTISRDNAKNTVYLQMNSLKPEDTAVYYCAVSRSKTYDYWGQGTQVTVSS”, for which the “polyreactivity (PSR sort gate)” value was “high polyreactivity”.
Under “QVQLVESGGGLVQAGGSLRLSCAASGSTFSGYAMGWYRHAPGKERELVAAISRRGTSTYYADSVKGRFTISRDNAKNTVYLQMNSLKPEDTAVYYCAARPSGYVIGGYGYWGQGTQVTVSS” stands “high polyreactivity”; under “QVQLVESGGGLVQAGGSLLLSCAASGSILRMYVMGWYRQAPGKESELVADRSDRGGSTYYADSVKGRFTISRDNAKNTVYLQMNSLKPEDTAVYYCAKDSETAGATYTEYDYWGQGTQVTVSS”, “low polyreactivity”; under “QVQLVESGGGLVQAGGSLRLSCAASGRIYGPNAMGWYRQAPGKERELVAAISTSGGSTYYADSVKGRFTISRDNAKNTVYLQMNSLKPEDTAVYYCNVVHRGSWYYFWGQGTQVTVSS”, “high polyreactivity”.
On to “QVQLVESGGGVVQAGGSLRLSCAASGRIFLTNALGWYRQAPGKVREVVADISRGGSTYADSVKGRFTISRDTAKNTVYLQMTSLKPEDTAVDYCAADEYSPGDSRTRYAYWGQGTQVPVSS”, for which the “polyreactivity (PSR sort gate)” value was “low polyreactivity”.
Regarding “QVQLVESGGGLVQAGGSLRLSCAATGRIFRYYAMGLYRQAPGNERELVAAIRRGGSTTYADSVKGRFTISRDNAKNTFYLQMNSLKPEDTAVYYCAATQYYRGYDYWGQGSQVTVSS”, the “polyreactivity (PSR sort gate)” value is on record as “high polyreactivity”.
“QVQLVESGGGLVQAGGRLRVSCATSGRTFGKYAMGWYRQAPGKERELVATISRSGGSTYYADSVKGRFTISRDNAKNTVYLQMNSLNPVDNAVYYCNAVTSRYIWPPGLDRYHYWGQGTQVTVSS”: the “polyreactivity (PSR sort gate)” value was “high polyreactivity”.
Regarding “QVQLVESGGGLVQAGGSLRLSCAASGSIFVVYSMGWYRQAPGKERELVAGISYGDNTNYADSVKGRFTISRDNAKNTVYLQMNSLKPVDTAVYYCNADGTSRNLEGFDYWGQGTQVTVSS”, the “polyreactivity (PSR sort gate)” value is “low polyreactivity”.
As for “QVQLVESGGGLVQAGGSLRLSCAASGRIFTFNAMGWYRQAPGKERELVAAIRRGGGRTYYADSVKGRFTISRDNAKNTVYLQMNSLKPEDTAVYYCAAPFYRQSLIEYDYWGQGTQVTVSS”, the “polyreactivity (PSR sort gate)” value is on record as “high polyreactivity”.
Regarding “QVQLVESGGGLVQAGGSLRLSCAASGLTFAYYDMGWYRPAPGKERELVAAITSGGTTNYADSVKGRFTISRDNAKNTVYLQMNSQKPEDTADYYCAADRYYWGRYTLNYWGQGTQVTVSS”, the “polyreactivity (PSR sort gate)” value is recorded as “low polyreactivity”.
